Source: patent US20200079850A1

What was measured:
[1] = target: cynomolgus LAG3 expressed on the cell surface (293T or CHO cells) (cynomolgus monkey); experiment: flow cytometry, 293T cells expressing cyno LAG3
[2] = target: cynomolgus LAG3-Fc (accession # NC 022282.1) (cynomolgus monkey); experiment: SPR (Biacore), antibody captured by anti-Flag, cyno LAG3-Fc as analyte, 25 C
Chain of cynomolgus LAG3-Fc (accession # NC 022282.1) (cynomolgus monkey) (P18627 other isoform, or with tags, fused parts or gaps limits assumed, form in doubt): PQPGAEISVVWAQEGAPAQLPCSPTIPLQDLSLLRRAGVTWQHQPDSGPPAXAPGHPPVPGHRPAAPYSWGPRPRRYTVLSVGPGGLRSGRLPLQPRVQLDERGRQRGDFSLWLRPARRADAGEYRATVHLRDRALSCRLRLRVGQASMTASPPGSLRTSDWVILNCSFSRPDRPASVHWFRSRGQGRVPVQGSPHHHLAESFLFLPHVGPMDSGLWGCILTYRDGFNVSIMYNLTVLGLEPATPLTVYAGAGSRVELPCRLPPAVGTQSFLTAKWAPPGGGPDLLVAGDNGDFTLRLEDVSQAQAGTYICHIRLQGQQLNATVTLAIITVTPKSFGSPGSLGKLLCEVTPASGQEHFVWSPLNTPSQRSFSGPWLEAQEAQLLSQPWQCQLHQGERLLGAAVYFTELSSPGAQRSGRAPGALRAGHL

Chain of cynomolgus LAG3 expressed on the cell surface (293T or CHO cells) (cynomolgus monkey) (P18627 other isoform, or with tags, fused parts or gaps limits assumed, form in doubt): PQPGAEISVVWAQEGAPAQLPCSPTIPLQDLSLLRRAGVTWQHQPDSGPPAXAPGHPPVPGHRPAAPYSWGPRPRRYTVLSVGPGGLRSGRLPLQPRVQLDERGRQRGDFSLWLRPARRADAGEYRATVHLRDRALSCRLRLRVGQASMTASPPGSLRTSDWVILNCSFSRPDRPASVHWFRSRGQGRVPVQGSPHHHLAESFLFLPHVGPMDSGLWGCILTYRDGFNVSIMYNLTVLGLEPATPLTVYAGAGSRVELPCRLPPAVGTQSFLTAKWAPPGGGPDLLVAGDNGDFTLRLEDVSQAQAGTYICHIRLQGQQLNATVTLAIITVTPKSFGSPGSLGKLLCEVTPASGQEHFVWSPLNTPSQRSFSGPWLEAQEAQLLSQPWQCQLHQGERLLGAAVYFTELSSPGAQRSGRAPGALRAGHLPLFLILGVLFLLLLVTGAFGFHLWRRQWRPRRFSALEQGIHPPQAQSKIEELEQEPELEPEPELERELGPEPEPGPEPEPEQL

B1: 421.61.4.5G11 (antibody, V domains shown)
VH: EVQLQQSGAELVRSGASVKLSCTASGFNIKDYYMHWVKQRPEQGLEWIAWIDPENGDTEYAPKFQGRATLTADTSSNTAYLHLSSLTSEDTAVYYCNAPDALDYWGQGTSVTVSS
VL: not shown
Kd [1]: 4.5 nM | Kd [2]: 4.51 nM | koff [2]: 0.000641 s⁻¹
